The values below come from publication PMC3176717 (Biochemistry, 2011).

Data set [1] concerns the molecule itself. Briefly: AUC.
Data set [2] deals with the molecule itself. Description: AUC. This is another data set of the same source.

Where a chain is given by its changes, count along the chain named. Numbers in names are those of the source. Like-named read-outs stand apart in the source and are kept apart here.

B1: wild type human Prx I (peroxiredoxin I), reduced, non-glutathionylated (enzyme, UniProt Q06830 1-199, looked up)
chain: MSSGNAKIGHPAPNFKATAVMPDGQFKDISLSDYKGKYVVFFFYPLDFTFVCPTEIIAFSDRAEEFKKLNCQVIGASVDSHFCHLAWVNTPKKQGGLGPMNIPLVSDPKRTIAQDYGVLKADEGISFRGLFIIDDKGILRQITVNDLPVGRSVDETLRLVQAFQFTDKHGEVCPAGWKPGSDTIKPDVQKSKEYFSKQK
Take B1: the “stoichiometry N” value in the data set “AUC [1]” turned out to be 10.

B2: glutathionylated Prx I (C83S) mutant (enzyme, human, UniProt Q06830 1-199, looked up)
chain: B1 chain with C83S
modifications: glutathionylated by disulfide exchange with GSSG; sites not stated for this mutant
As to B2, the “stoichiometry N” value in the data set “AUC [2]” was 2.

B3: human Prx I (C52S/C173S) double mutant, reduced (enzyme, UniProt Q06830 1-199, looked up)
chain: B1 chain with C52S, C173S
In the case of B3, the “stoichiometry N” value in the data set “AUC [1]” was 10.
